Measurements as given in CN111138531A (INST MILITARY MEDICINE ACADEMY MILITARY SCIENCES PLA, dated 2020).

Experiments:
sGP = sGP (EBOV, UniProt Q05320 33-295); assay: ELISA on coated truncated GP, method as example 2
GP1 = GP1 (EBOV, UniProt Q05320 33-501); assay: ELISA on coated truncated GP, method as example 2
SUDV GP = biological target: T1, SUDV GP (SUDV, UniProt Q7T9D9 33-650); assay: ELISA, coated GP 1 μg/mL, 1:3 dilution series of 8F9
T1 sequence: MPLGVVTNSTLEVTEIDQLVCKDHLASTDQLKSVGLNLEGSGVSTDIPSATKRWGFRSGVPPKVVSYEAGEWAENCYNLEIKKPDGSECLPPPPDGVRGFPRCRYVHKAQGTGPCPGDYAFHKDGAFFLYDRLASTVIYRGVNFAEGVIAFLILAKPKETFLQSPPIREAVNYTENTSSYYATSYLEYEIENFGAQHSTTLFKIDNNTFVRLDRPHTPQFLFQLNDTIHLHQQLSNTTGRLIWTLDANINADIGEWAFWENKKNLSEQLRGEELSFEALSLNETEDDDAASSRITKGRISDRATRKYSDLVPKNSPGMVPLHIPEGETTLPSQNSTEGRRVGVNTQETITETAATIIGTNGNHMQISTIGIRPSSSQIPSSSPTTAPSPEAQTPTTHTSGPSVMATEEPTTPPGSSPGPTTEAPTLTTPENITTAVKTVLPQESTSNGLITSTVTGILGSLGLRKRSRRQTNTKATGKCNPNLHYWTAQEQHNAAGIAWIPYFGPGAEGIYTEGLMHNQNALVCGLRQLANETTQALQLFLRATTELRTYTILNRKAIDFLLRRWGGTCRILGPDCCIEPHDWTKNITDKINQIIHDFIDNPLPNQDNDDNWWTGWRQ

RESTV GP = biological target: T2, RESTV GP (RESTV, UniProt Q66799 34-651); assay: as above
T2 sequence: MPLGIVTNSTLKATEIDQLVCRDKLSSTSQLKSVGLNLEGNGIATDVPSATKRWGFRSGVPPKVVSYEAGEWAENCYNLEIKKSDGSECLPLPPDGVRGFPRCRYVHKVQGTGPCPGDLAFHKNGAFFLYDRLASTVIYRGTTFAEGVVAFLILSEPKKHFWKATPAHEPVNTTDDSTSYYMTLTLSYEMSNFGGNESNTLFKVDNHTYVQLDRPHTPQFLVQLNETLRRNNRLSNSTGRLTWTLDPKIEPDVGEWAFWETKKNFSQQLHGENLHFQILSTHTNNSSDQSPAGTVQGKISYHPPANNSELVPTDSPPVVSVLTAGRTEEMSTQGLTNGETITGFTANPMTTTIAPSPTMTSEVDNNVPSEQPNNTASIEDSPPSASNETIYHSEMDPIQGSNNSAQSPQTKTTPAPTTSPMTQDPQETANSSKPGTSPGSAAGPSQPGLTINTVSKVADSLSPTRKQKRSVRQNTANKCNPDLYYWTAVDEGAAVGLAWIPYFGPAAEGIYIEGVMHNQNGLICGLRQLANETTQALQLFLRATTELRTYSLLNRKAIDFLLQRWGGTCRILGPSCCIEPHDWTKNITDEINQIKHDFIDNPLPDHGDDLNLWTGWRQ

EBOV GP = biological target: T3, EBOV GP (EBOV, UniProt Q05320 33-650); assay: ELISA, coated GP 1 μg/mL, 1:3 dilution series of 8F9 from 10 μg/mL
T3 sequence: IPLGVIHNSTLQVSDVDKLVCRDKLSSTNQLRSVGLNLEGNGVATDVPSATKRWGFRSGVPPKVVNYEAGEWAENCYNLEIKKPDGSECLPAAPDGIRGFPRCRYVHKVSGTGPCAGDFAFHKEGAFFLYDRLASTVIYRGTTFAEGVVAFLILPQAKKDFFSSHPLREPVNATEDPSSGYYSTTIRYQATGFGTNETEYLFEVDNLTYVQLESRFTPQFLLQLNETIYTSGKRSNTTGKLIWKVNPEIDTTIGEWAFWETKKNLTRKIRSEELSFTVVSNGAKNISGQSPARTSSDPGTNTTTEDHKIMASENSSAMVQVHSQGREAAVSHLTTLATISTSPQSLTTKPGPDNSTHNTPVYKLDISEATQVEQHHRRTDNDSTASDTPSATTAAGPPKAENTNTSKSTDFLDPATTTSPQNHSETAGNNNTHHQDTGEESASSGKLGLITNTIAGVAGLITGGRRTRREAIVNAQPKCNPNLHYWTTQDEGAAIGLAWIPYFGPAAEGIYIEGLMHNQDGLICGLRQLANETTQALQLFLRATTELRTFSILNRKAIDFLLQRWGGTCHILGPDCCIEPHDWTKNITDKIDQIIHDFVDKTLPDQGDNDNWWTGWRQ

B1: 单克隆抗体8F9 (antibody, V domains shown)
VH: EVQLLESGGGLVQPGGSLRLSCAASEFTFSNYAMNWVRQAPGKGLEWVSGISTRGSSTYYADSVKGRFTISRDNSKNTLYLQMNSLRVEDTAVYYCAKDRLSVFGVVLISSDYYGMDVWGQGTTVTVSS
VL: AIRMTQSPFSLSASVGDRVTITCRASRTISSYLNWYQKKPGKAPKLLIYAASSLQSGVPSRFSGSGSGTDFTLTISSLQPEDFATYYCQQSYSTPMTFGQGTRLEIKT
EC50 (sGP): 8.8 ng/mL
EC50 (GP1): 9.5 ng/mL
binding result (SUDV GP): no binding (tested: 10μg/mL (highest concentration tested))
binding result (RESTV GP): no binding (tested: 10μg/mL (highest concentration tested))
EC50 (EBOV GP): 15 ng/mL
